Patent US5801037A, “Expression of signal-peptide-free staphylokinases” (medac Gesellschaft fur klinische spezialpraparate mbH, priority 1991, dated 1998)

Experiments:
[1] = molecular target: plasminogen
[2] = molecular target: human plasminogen isolated from human plasma (human, UniProt P00747); assay: analytical affinity chromatography on immobilized human plasminogen, 16° C., 0.1M tris-HCl pH 7.3
[3] = test system: plasminogen; assay: Determination of the specific activity of the SAK polypeptides (plasmin release from plasminogen, Chromozym-PL); assay type: biochemical; conditions: plasminogen in excess, activation 10 minutes at 25° C., 405 nm
Protocol: The specific activity of a SAK form is defined as that quantity of plasmin (μmol) which is released per minute by 1 μmol of this SAK polypeptide from plasminogen (used in excess).
The protein content of the pertinent SAK polypeptide-containing parent solutions is established by means of the Bio-Rad Protein Assay (Bio-Rad, Munich) using bovine serum albumin as standard protein.
The determination of the plasmin release by the SAK polypeptides is carried out in two steps:
Firstly, dilution series (1 ng to 500 ng) of the SAK polypeptides are produced in 100 mM tris (pH 8.0). A reaction mixture, consisting of 30 μl plasminogen solution 20 mg plasminogen (Fluka), dissolved in 1 ml H2 O, 150 μl 100 mM tris buffer (pH 5.0) and 10 μl activator solution (dilution series SAK polypeptides) is then prepared. This mixture is incubated for 10 minutes at 25° C. […]
Reference samples, calibration samples and the actual measurement samples (each 250 μl) are pipetted into a microtitre plate with 96 cavities (flat bottom) and the adsorption at 405 nm is measured in a multi-channel photometer.
The quantity of plasmin which is released per minute by the SAK polypeptides contained in the starting solutions (dilution samples) can be calculated from the absorption values of the measured samples, taking into account the absorption values of the plasmin calibration series and of the reference samples. […]

Molecule	specific activity in µmol plasmin/(µmol SAK × min) (µmol plasmin/(µmol SAK × min)) [1]	further results
SAK fragment form N10ΔSAK42D	22.7	
SAK fragment form N14ΔSAK42D	8.1	
artificial allelic SAK form SAKM26C	21.1	
artificial allelic SAK form SAKM26L	36.6	
mature native staphylokinase SAK42D	16.2	
SAK fragment form N14ΔSAK42D (other) MASYFEPTGPYLMVNVTGVDGKRNELLSPRYVEFPIKPGTTLTKEKIEYYVEWALDATAYKEFRVVELDPSAKIEVTYYDKNKKKEETKSFPITEKGFVVPDLSEHIKNPGFNLITKVVIEKK		Kd [2]: 4.4 µM
SAK fragment form N10ΔSAK42D (other) MKGDDASYFEPTGPYLMVNVTGVDGKRNELLSPRYVEFPIKPGTTLTKEKIEYYVEWALDATAYKEFRVVELDPSAKIEVTYYDKNKKKEETKSFPITEKGFVVPDLSEHIKNPGFNLITKVVIEKK		Kd [2]: 2.21 µM
SAK42D: signal-peptide-free mature native staphylokinase from S. aureus phage 42D, 136 amino acids, Seq. Id. No. 1 (protein) MSSSFDKGKYKKGDDASYFEPTGPYLMVNVTGVDGKRNELLSPRYVEFPIKPGTTLTKEKIEYYVEWALDATAYKEFRVVELDPSAKIEVTYYDKNKKKEETKSFPITEKGFVVPDLSEHIKNPGFNLITKVVIEKK		specific activity [3]: 16.2 μmol plasmin/(μmol SAK × min)
